These results are taken from patent US20180305432A1.

For the experiment, the target named is self-lipid accumulated in leukemia cells peptide on CD1c (human). Put plainly: mLPA titration on K562-CD1c cells; CD69 on transduced Jurkat 76 b2m- cells (FIG. 5B); highest of the three TCRs titrated; full-length, on cells. To be noted: chains Valpha:Vbeta.

B1: TCR DN4.99 (protein)
chain 1: AQTVTQSQPEMSVQEAETVTLSCTYDTSESDYYLFWYKQPPSRQMILVIRQEAYKQQNATENRFSVNFQKAAKSFSLKISDSQLGDAAMYFCAYRSPLNTGTASKLTFGTGTRLQVTL
chain 2: DVKVTQSSRYLVKRTGEKVFLECVQDMDHENMFWYRQDPGLGLRLIYFSYDVKMKEKGDIPEGYSVSREKKERFSLILESASTNQTSMYLCASSPWVSSYEQYFGPGTRLTVT
Molecule B1 registered an EC50 of peptide of 100 µg/mL.
